From article PMC11742489
Several values for one entry are separate records, joined by “and”; a condition that tells them apart may be missing. Equal values may be shown once.

Molecular target: Ca2+/CaM
Test: ITC; Cav1.2-NSCaTE peptide (20-fold molar excess) injected into CaM (~50 uM); 50 mM HEPES, 100 mM KCl, 2 mM MgCl2, pH 7.5, 5 mM CaCl2 (Ca2+-saturating); 20°C by the legend, 25°C by the methods; one-site binding model

## Cav1.2-NSCaTE(51-67) peptide
  stoichiometry N: 2 and 1.7
